Reference: IntAct's records for PubMed 18292230

B1: E3 ubiquitin-protein ligase CHIP (Homo sapiens), Q9UNE7-1 (parent)
chain: MKGKEEKEGGARLGAGGGSPEKSPSAQELKEQGNRLFVGRKYPEAAACYGRAITRNPLVAVYYTNRALCYLKMQQHEQALADCRRALELDGQSVKAHFFLGQCQLEMESYDEAIANLQRAYSLAKEQRLNFGDDIPSALRIAKKKRWNSIEERRIHQESELHSYLSRLIAAERERELEECQRNHEGDEDDSHVRAQQACIEAKHDKYMADMDELFSQVDEKRKKRDIPDYLCGKISFELMREPCITPSGITYDRKDIEEHLQRVGHFDPVTRSPLTQEQLIPNLAMKEVIDAFISENGWVEDY

Variants of: B1
Conditions: with akt1_human AKT1, P31749
akt1_human AKT1, P31749, sequence (P31749 whole entry): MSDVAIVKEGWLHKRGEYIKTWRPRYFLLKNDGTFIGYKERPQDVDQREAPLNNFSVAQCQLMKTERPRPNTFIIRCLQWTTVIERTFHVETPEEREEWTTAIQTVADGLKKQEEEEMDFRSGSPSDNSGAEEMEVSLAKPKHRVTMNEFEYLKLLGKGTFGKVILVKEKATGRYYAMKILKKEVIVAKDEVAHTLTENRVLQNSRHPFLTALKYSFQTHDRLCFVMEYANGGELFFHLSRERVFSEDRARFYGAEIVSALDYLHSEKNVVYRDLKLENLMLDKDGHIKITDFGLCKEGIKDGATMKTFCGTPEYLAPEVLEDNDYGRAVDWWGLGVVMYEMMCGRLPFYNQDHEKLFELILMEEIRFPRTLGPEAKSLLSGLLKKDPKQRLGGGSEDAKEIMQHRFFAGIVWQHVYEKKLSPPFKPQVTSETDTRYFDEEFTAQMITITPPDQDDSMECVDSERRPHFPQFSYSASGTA

effect of a mutation on the interaction | Variant
disrupting interaction | K30A
